The text below walks through data of paper PMC5510004, “Recruitment and positioning determine the specific role of the XPF‐ERCC1 endonuclease in interstrand crosslink repair”.

Series [1] concerns the target T1, XPF L219R;ERCC1 wild type (hsERCC1) (Xenopus laevis;Homo sapiens?, UniProt A0A8J0PXV9;P07992 1-897;1-297, L219R|).
T1 sequence 1: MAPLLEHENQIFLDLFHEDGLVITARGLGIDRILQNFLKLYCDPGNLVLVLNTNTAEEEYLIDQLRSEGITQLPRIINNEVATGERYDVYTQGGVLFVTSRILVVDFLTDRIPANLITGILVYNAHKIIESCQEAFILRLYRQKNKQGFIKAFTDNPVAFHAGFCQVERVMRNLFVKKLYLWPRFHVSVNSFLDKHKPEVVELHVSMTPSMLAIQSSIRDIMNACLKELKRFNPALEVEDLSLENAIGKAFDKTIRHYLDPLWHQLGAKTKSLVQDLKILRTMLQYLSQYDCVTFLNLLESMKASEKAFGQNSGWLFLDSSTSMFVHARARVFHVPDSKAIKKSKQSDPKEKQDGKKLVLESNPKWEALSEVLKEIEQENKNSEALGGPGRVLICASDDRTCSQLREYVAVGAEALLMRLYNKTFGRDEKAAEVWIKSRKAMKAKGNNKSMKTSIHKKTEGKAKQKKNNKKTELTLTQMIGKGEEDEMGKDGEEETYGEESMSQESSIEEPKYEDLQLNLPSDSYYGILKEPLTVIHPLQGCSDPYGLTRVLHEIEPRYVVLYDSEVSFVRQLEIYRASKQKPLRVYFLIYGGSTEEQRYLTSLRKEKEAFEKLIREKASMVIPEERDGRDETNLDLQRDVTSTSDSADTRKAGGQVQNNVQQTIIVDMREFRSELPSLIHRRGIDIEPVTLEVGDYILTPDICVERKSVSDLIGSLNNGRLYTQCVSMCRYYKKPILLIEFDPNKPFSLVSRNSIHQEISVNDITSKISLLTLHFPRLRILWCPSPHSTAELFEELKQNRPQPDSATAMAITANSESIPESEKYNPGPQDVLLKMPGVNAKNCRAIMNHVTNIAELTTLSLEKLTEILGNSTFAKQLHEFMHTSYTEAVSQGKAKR
T1 sequence 2: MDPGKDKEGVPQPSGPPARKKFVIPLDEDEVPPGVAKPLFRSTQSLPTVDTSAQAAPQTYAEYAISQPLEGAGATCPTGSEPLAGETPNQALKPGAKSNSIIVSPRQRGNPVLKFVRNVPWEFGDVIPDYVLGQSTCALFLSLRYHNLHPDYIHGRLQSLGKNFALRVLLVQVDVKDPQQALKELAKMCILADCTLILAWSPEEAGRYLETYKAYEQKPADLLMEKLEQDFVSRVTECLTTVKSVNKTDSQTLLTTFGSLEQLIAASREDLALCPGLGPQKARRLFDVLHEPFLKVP
As to the kind of experiment: fluorescence anisotropy; 2 mM Ca2+; comparable to wild type; 25 mM Hepes pH 8.0, 15% glycerol, 0.1 mg/ml BSA, 2 mM CaCl2, 10 nM DNA, 1 h at room temperature. The note with it: protein: recombinant;recombinant; tags: FLAG;His; copies: 1;1; label: 5'-FAM on F1; three strands 1:1:1.

Series [2] has as its target T2, XPF R670S;ERCC1 wild type (hsERCC1) (Xenopus laevis;Homo sapiens?, UniProt A0A8J0PXV9;P07992 1-897;1-297, R670S|).
T2 sequence 1: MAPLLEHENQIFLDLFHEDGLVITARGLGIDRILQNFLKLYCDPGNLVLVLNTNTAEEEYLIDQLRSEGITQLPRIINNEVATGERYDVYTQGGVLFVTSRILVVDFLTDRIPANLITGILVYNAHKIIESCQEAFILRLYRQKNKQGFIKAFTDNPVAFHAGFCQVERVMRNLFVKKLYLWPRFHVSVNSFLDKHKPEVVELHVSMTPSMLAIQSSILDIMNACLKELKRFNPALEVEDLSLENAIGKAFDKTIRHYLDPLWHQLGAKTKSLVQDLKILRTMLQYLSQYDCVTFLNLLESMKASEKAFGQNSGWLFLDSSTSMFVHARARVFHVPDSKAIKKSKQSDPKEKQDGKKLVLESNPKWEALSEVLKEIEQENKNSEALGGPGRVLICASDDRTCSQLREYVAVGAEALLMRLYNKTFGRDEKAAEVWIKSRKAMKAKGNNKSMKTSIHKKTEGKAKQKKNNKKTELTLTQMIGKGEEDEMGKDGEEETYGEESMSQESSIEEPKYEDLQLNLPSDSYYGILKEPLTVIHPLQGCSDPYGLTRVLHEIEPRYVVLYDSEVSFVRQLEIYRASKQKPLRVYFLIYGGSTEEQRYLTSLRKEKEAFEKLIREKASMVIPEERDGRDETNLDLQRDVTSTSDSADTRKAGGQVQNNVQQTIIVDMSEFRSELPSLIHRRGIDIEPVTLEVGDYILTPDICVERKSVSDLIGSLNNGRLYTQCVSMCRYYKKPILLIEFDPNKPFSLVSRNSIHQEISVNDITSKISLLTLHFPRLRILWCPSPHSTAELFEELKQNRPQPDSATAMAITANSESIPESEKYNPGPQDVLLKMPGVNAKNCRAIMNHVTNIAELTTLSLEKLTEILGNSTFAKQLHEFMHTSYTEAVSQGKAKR
T2 sequence 2: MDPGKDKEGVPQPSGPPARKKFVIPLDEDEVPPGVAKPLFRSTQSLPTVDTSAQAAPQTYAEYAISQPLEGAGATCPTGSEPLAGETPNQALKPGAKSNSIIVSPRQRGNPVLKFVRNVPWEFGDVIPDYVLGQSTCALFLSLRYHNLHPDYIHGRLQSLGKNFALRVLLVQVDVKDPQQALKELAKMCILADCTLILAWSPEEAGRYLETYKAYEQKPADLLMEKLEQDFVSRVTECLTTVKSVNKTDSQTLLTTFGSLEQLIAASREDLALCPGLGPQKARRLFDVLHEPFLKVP
The series is described as above. As to conditions: protein: recombinant;recombinant; tags: FLAG;His; copies: 1;1; label: 5'-FAM on F1; three strands 1:1:1.

B1: 3' flap DNA substrate (F1+F2+F3) (dsDNA)
DNA 1: CGCGATGCGGATCCAA
DNA 2: CCTAGACTTAAGAGGCCAGACTTGGATCCGCATCGC
DNA 3: GGCCTCTTAAGTCTAGG
Regarding B1, the binding result in series [1] and in series [2] was “binds” each time.
